For one assay, the target named is 人TIGIT-hFc (human) (UniProt Q495A1). The assay is described as follows: blocking ELISA: Bio-CD155 on coated TIGIT-hFc; reference Ref1.
The target in assay [1] is T1, CHO-K1-T1001细胞表达的人TIGIT (human) (UniProt Q495A1).
T1 sequence (looked up): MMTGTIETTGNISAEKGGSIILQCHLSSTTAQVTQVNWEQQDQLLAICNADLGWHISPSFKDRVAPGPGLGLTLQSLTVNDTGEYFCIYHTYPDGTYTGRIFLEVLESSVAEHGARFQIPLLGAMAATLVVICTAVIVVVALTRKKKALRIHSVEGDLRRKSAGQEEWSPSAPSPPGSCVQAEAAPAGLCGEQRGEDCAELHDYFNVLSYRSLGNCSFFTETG
The assay can be described thus: cell ELISA on fixed CHO-K1-T1001 cells; reference Ref1. Background: In an ELISA, binding on a coated surface is turned into a signal by an enzyme label.

B1: IF091 (鼠源单克隆抗体mab22) (antibody, V domains shown)
VH: EVKLVESGGGLVQPGGSLKLSCVASGFTFSSYTMSWVRQTPEKRLELVAEISSSGGSTYYPDTVKGRFTISRDNAKNTLFLQMNSLKSEDTAMYYCARPGLGAWFAYWGQGTLVTVSA
VL: DVLMTQTPLSLPVSLGDQASISCRSSQSIVHNSGNTYLEWYLQKPGQSPKLLIYKVSNRFSGVPDRFSGSGSGTDFTLKISRVEAEDLGIYYCFQFSHVPRTFGGGTKLEIK
Turning to B1, in the assay with 人TIGIT-hFc (human), the fold better than Ref1 (阻断活性) stood at 1.83 fold. Moreover, in assay [1], the fold better than Ref1 (结合活性) came to 1.73 fold.

(Values after CN116355095A.)
